Experimental data taken from the nanobody polyreactivity screen of Harvey et al. (2022).

Experiment: yeast display, Sf9 membrane polyspecificity reagent, FACS + sequencing; frameworks hold sequencing errors
Method in brief: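 In a synthetic yeast display library (Saccharomyces cerevisiae BJ5465), nanobody expression was induced with galactose for 36–48 hours. FACS gates were set low and high (top ~1%) using anti-HA fluorescence for expression and streptavidin fluorescence for binding of the Sf9 membrane reagent. Each polyreactivity label is drawn from the gate of origin.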

Row | Sequence | polyreactivity (PSR sort gate)
1 | QVQLVESGGGLVQAGGSLRLSCAASGFTFRYYAMGWYRQAPGQERELVAAITRGAGSTYYADSVKGRFTISRDNAKNTDYFQMNSLKPEDTAVYYCAAEFFQYYVATPFDPSNYWGQGTQVTVSS | low polyreactivity
2 | QVQLQESGGGMVQAGGSLRLSCAASGYISWADYMGWYRQAPGKERELVAGIGYGSTTYYADSVKGRFTISRDNAKNTAYLQMNSLKPEDTAVYYCAVGWYRVTAYKYWGQGTQVTVSS | low polyreactivity
3 | QGQLVESGGGLVQAGGSLRFSCAASGRIFSVYDMGWYRQAPGTERELVAAIDTSDGSTNYADSVKGRFTISRDNAKNSVYLQMNSLKPEDTAVYYCNATDSYVPFDYWGQGTQVTVSS | low polyreactivity
4 | QVQLVESGGGLVQAGGSLRLSCAASGRIFGYYDMGWYRQAPGKERELVAAITWSGGSTYYADSVKGRFTISRDNAKNTVYLQMNSLKPEDTAVYYCAAEKRYRKAFDYWGQGTQVTVSS | high polyreactivity
5 | QVQLVESGGGLVQAGGSLRLSCAASGSIFGRNAMGWYRQAPGREREFVATITSRGGRTYYADSVKGRFTISRDNAKNTVYLQMNSLKPEDTAVYYCAADTYISTLKKYRLGDYWGQGTQVTVSS | low polyreactivity
6 | QVQLVESGGGLVQAGGSLRLSCAASGSTSYLYAMGWYRQAPGKERELVATITTRSGSTYYADSVKGRFTISRDNAKNTVYLQINSLKPEDTAVYYCAARWISVLSEGAEHDYWGQGTQVTVSS | low polyreactivity
7 | QVQLVESGGGLVQAGGSLRLTCAPSGRIFTRNTMGSYRQAPGKERELVAAISTGASTYYADSVKGRFTISRDNATNSVYLQMNSLKPEVTAVYYCATRGYARYWGLGTQVTVSS | low polyreactivity
8 | QVQLVESGGGLVQAGGSLRLSCAASGSIFIYYAMGWYRQAPGKERELVAAISFSGARTYYADSVKGRFTISRDNAKNNVSLQMNSLKPEDTAVYYCNVEIGTGDYDYWGQGTQVTVSS | low polyreactivity
9 | QVQLVESGGGLVQAGGSLRLSCAASGSILGHYAMGWYRQAPGKERELVAAISSSGGSTYYADSVKGRFTISRDNAKNTVYLQMNSLKPEDTAVYYCAADRGRPFPRGTGYYYWGQGTQVTVSS | high polyreactivity
10 | QVQLVESGGGLVQAGGSLRLSCAASGYILPHNAMGWSRQAPGKDGEMVAAITSSGGSTYYADSVKGRVTISRDNAKNTVYLQMNSLKPEDTAVYYCNTDQYSPYEYSSFDSWGQGTQVTVSS | low polyreactivity
11 | QVQLVESGGGLVQAGGSLRLSCAASGTFGYMGWYRQAPGKERELVAAITSRGGGNTYYADSVKGRFTISRDNAKNTVYLQMNSLKPEDTAVYYCAASRVGYHGQTYDYWGQGTQVTVSS | high polyreactivity
12 | QVQLVESGGGLVQAGGSLRLSCAASGIIFQYYVMGWYRQAPGKERELVATISTRGGSTYYADSVKGRFTISRDNAKNTVYLQMNSLKPEDTAVYYCAAPYGTYAYDYWGQGTQVTVSS | high polyreactivity
13 | QVQLVESGGGLVQAGGSLRLSCAASGSTFPWNAMGWYRQAPGKERELVAAINYGNGSTYYADSVKGRFTISRDNAKNTVYLQMNSLKPVDTAVYYCNADFTGTRSDSVTPEYEYWGQGTQVTVSS | low polyreactivity
14 | QVQLVESGVGLVQAGGSLRLSCAASGYTIDWYTMGWYRQAPGKERELVAAISASGVRTYYADSVKGRFTISRDNAKNTVYLQMNSLKPEDTGVYYCNRVYSTSRITQYEFDYWGQGTQVTLSS | low polyreactivity
15 | QVQLVESGGGLVQAGGSLRLSCAASGRIFRYYAMGWYRQAPGKERELVAAITRGGSTNYADSVKGRFTISRDNAKNTVYLQMNSLKPEDTAVYYCATRQSWYPRWMDYWGQGTQVTVSS | high polyreactivity
16 | QVQLVESGGGLVQAGGSLRLSCAASGSSFNGNAMGWYRQAPGKERELVAAISRKGGSTYYADSVKGRFTISRDNAKNTVYLQMNSLKPEDTAVYYCATDLTVYYSYYWMYWGQGTQVTVSS | low polyreactivity
17 | QVQLVESGGGLVQAGGSLRLSCAASGLIFVDNAMGWYRQAPGKERELVAAIESGGSTNYADSVKGRFTISRDNAKNTVYLHMNSLKPEDTAVYYCAADWIYAPWYYQESVEYYYWGQGTQVTVSS | low polyreactivity
18 | QVQLVESGGGLVQAGGSLRLSCAASGRTFVNNAMGWYRQAPGKERELVAAITRSGGRTYYADSVKGRFTISRDNAKNTVYLQMNSLKPVDTAVYYCATANVRLRHDDYWGQGTQVTVSS | high polyreactivity
19 | QVQLVESGGGLVQAGGSLRLSCAASGFIFRHYAMGWYRQAPGKEREFVAAISYRGDSTYYADSVKGRFTISRDNAKNTVYLQMNSLKPEDTAVYYCAATYVSSAYYSYDYWGQGTQVTVSS | high polyreactivity
20 | QVQLVESGGGLVQAGGSLRLSCAASGITFYYYAMGWYRQAPGKERELVAAISFRGGSTYYADSVKGRFTISRDNAKNTVYLQMNSLIPEDTAVYYCAAETSPSWYTWVTYDYWGQGTQVTVSS | high polyreactivity
21 | QVQLVESGGGLVQAGGSLRLSCAASGSTFFLYAMGWYRQAPGKERELVASITDGGSTNYADSVKGRFTISRDNAKNTVYLQMNSLKPEDTAVYYCAKDYIHFSHKYDYWGQGTQVTVSS | low polyreactivity
22 | QVQLVDSGGGLVQAGGSLRLSCAASGFIFDINAMGWYRQAPGKERELVAAISYSGGSTYYADSVKGRFTISRDNAKNTVYLQMNSLKPEDTAVYYCAADCGPDSDEGDYWGQGTQVTVSS | low polyreactivity

Row | Sequence | polyreactivity (PSR sort gate)
23 | QVQLVESGGGLGQAGGSLRLTCAASGSIFRSYAMGWYRQAPGKESEFVATISSSTGSTYYADSVKGRFSISRDNAKNTVYLPMNSLKPEFTAVYYCAAVQPVKSSSGYHFWYYWGQGTQVTVSS | high polyreactivity
24 | QVQLVESGGGLVQAGGSLRLSCAASGRIFAVNAMGLYRQAPGKERELVARIRRIGGSTYYADSVKGRFTISRDNAKNTVYLQMNSQKPEDTAVYYCAAVSRVWLNLYNYWGQGTQVTVSS | high polyreactivity
25 | QVQLVESGGGLVQAGGSLRLSCAATGLFDVYAMGGYRQAPRKERELVAAISSDGSTYYADSVKGRFTISRDNAKNTVYLQMNSLKPEDTAVYYCNADTSGSPYLQGYVGYGYWGQGTQVTVSS | low polyreactivity
26 | QVQLVESGGGLVQAGGSHRLSCAASGRTFYINAMGWYRQAPGKERELVAAISIRGGGTYYADSVKGRFTISRDNAKNTVYLQMNSLKPEDTAVYYCAAEYTEGYTHDYWGQGTQVTVSS | low polyreactivity
27 | QVQLVESGGGLVQAGGSLRLSCAASGRILGRNAMGWYRQAPGKEREFVAGISYSGTSTYYADSVKGRFTISRDNAKNTVYLQMNSLKPEDTAVYYCNVKNQVYRRYYYWGQGTQVTVSS | high polyreactivity
28 | QVQLVESGGGLVQAGGSLRLNCAASGRIFKYNTRGWYRQAPGKERQLVAAISLSTGSGGGTRYADSVKGRFTISRDNAKNTVYLKMNSLNPEDTAVYYCAARHRYTNEYDYWGQGTQVTVSS | low polyreactivity
29 | QVQLVDSGGGLVQAGGSLRLSCAASGRIFAWYAMGWYRQAPGKERELVAAISSGGSTNYADSVKGRFTISRDNAKNTVYLQMNSLKPEDTAVYYCNRYPVRDTGGYWGQGTQVTVSS | low polyreactivity
30 | QVQLVESGGGLVQAGGSLRLSCDASGSILGTYALGWSRQAPGKERELVAAISSSGRTSYADSVKGRFTISRDNAKNTVYLQMNSLKPEDTAVYYCIASNYIVLINDPDAAPWLYDYWGQGTQVTVSS | low polyreactivity
31 | QVQLVESGVGLVQAGGSLRLSCAASGSTFRSNALGWYRQAPGKEREVVAGISSGGGTYYADSVKGRFTISRDNAKNTVYLQMNSLKPEDTAVYYCAKVVYFGWSVQYYYWGQGTQVTVSS | low polyreactivity
32 | QVQIVESGGGLVQAGGSLRLSCAASGSTFGDNAMGWSRQAPGKERELVAAITRSGGSTYYADSVKGRFTISRDTAKNTVYLHMHSLKPEDTAVYYCNADWYFQYPYDYGGQGTQVTVSS | low polyreactivity
33 | QVQLVESGGGLVQAGGSLRLSCAASGITSHWYVMGWYRQAPGKERELVAAINSSGGRTSYADSVKGRFTISRDNAKNTVYLQMNSLKPEDTAVYYCAAGYTHSYFLGATGKVDYWGQGTQVTVSS | low polyreactivity
34 | QVQHVESGAGLVQAGGSLRLSCAASGRIFSRYAMGWYRQAPGKERELVAAISERGASTYYADSVKGRFTISRDNAKNTVYLQMNSLKPEDTAVYYCAAKRGSGYGYWGQGTQVTVSS | high polyreactivity
35 | QVQLVESGGGLVQAGGSLRLSCAASGRTFGPYAMGWYRQAPGKERELVAAITCSGGSTYYADSVKGRFTISRYNAKNTVYLQMNSLKPEDTAVYYCAPYHLSKLDYWGQGTQVTVSS | low polyreactivity
36 | QVQLVESGGGLVQAGGSLRLSCAASGSIFGGNAMGWYRQAPGKERELVATIDFSGTSTYYADSVKGRFTISRDHAKKTVYLQMHSLKPEDTSVSSCNARSYPDYIYWSQRYDYDFWGQGTQVTVSS | low polyreactivity
37 | QVQLVESGGALVQAGGSLRLICAASGRIFQRYTKGWYRQAPGKERELVAAITYSGGRTYYADSVKGRFTISRDNAKNTVYLQMNSLKPEDTAVYYCYAAYFNWYTHVWNDYWGQGTQVTVSS | high polyreactivity
38 | QVQLVESGGGLVQAGGSLRLSCAASGSTFSINAMGWYRQAPGKERELVAAITWRGVRTYYADSVKGRFTISRDNAKNTVYLQMNSLKPEDPAVYYCAAVPATSYPRRYVYAYYYWGQGTQVTVSS | high polyreactivity
39 | QFQLVESGGGLVQAGGSLRLSCAASGIIFGAYVMGWYRQAPGKERELVAVISWSSTSTYYADSVKGRFTISRDNAKNTVYLQMNSLKPEDTAVYYCNARYLRRGDYWGQGTQVTVSS | low polyreactivity
40 | QVQLVESGGGLVQAGGSLRLSCAASGGIFYSNAMGWYRQAPGKERELVAVISGNGGRTYYADSVKGRFTISRDNAKNTVYLQMNSLKPEDTAVYYCATPSYTTAYVEGDYWGQGTQVTVSS | low polyreactivity
41 | QVHLVESGGGLVQAGGSLRLSCAASGSTLSFYARGWYRQAPGKERELVAAISSSGGSTYYADSVKGRFTISRDNAKNTVYLQMNSLKPEDTAVYYCNAVRRNYGYDYWGQGTQVTVSS | high polyreactivity
42 | QVQLVQSGGGLVQAGGRLSLSCAASGRTIDTYAMGWYRQAPGKERELVAAITRRTYYADSVKGRFTISRDNAKNSVYLQMNSLKPEDTAVDYCAVRFLRKWTSSRHYGYWGQGTQVTLSS | high polyreactivity
43 | QVQLVESGGGLVQAGGSLRLSCAASGRTFYGYAMGWYRQAPGKERELVAAISKTGGSTYYADSVKGRFTISRDNAKNTVYLQMNSLKPEDTAVYYCNARRIYRLEYDSWGQGTQVTVSS | high polyreactivity
